Data set [1] in a line: folding stability dG unfold from chymotrypsin proteolysis; higher = more stable. The method in brief: (§1)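 K50 was inferred by Bayesian fitting of sequencing counts obtained after protease digestion of designed mini-proteins. Unfolding free energy was derived by comparison with a sequence-predicted unfolded-state K50 and a shared folded-state K50, for each protease or both combined. The mini-proteins were under 80 residues, had no cysteine, were carried in a PA-tagged cDNA display construct, and were kept only if AlphaFold2 dimer inter-PAE exceeded 15.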

Data set [2] in a line: folding stability dG unfold (combined trypsin and chymotrypsin); higher = more stable. In short, it runs like this: as §1
Data set [3] is described as follows: folding stability dG unfold from trypsin proteolysis; higher = more stable. The method in brief:
as §1

± gives the half width of the 95% confidence interval.

For “SAGGSAGGSAGGMEFKPGQEIEIVLKDENGRLIVIKAKVKKVDGKLVIEIEEAYELDDLSAGGSAGGSAGGS [r10_744_TrROS_Hall]”, the “folding stability dG unfold” value came out at 2 ± 0.14 kcal/mol in data set [1], 2.05 ± 0.26 kcal/mol in data set [2] and 2.34 ± 0.12 kcal/mol in data set [3].
The corresponding values for “SAGGSAGGSAGGMEISEKLREYIEKLGKKVSEEEALAIAEEKAKELKEKGIEDVTIVLPVSAGGSAGGSAGG [r7_512_JUSTAS]” are 0.374 ± 0.072 kcal/mol, 0.399 ± 0.17 kcal/mol and -0.0343 ± 0.1 kcal/mol.
Regarding “SAGGSAGGSAGGMIEKIEVTKLPDGTYKVTITIPLPNGPVITKTITIPPSETVEDAIAKLSAGGSAGGSAGG [r7_54_JUSTAS]”, the “folding stability dG unfold” value in data set [1] was 2.194 ± 0.012 kcal/mol; in data set [2] it was 2.31 ± 0.046 kcal/mol; in data set [3], 2.54 ± 0.04 kcal/mol.
For “SAGGSAGGSAGGMIKIKLGDKWVDVAEVKEYPDSIIVYNPKTNTKITISKKNPEDPNILISAGGSAGGSAGG [r7_391_JUSTAS]”, in that order: 1.47 ± 0.081 kcal/mol, 1.01 ± 0.21 kcal/mol and 0.463 ± 0.09 kcal/mol.
For “SAGGSAGGSAGGMINIEGSSFEIVQPDGKPIGSESTGSAEELAKKLPSSYSVLPKGVPPSAGGSAGGSAGGS [r10_310_JUSTAS]”, in that order: 2.72 ± 0.11 kcal/mol, 2.25 ± 0.27 kcal/mol and 1.67 ± 0.21 kcal/mol.
With “SAGGSAGGSAGGMIVETLGDSPETVTLVKLPNKPIIRTYDPVTGTWTIYDPDTNKIYEISAGGSAGGSAGGS [r10_434_JUSTAS]”, the “folding stability dG unfold” value in data set [1] stood at 0.872 ± 0.14 kcal/mol; in data set [2] it was 1.26 ± 0.098 kcal/mol; in data set [3], 1.39 ± 0.052 kcal/mol.
For “SAGGSAGGSAGGMKIKNAEIVEVKEENGKKTLLVKNKETGKYYKITIDDNKITIEEVKVPSAGGSAGGSAGG [r7_940_TrROS_Hall]”, in that order: 4.13 ± 0.13 kcal/mol, 3.87 ± 0.52 kcal/mol and 2.21 ± 0.32 kcal/mol.
For “SAGGSAGGSAGGMKIKTITGDPSTGVYTITFPDGKVETIPMTQEEVEALAKENPGIEITLSAGGSAGGSAGG [r7_175_JUSTAS]”, in that order: 2.81 ± 0.049 kcal/mol, 2.46 ± 0.097 kcal/mol and 0.899 ± 0.035 kcal/mol.
For the sequence “SAGGSAGGSAGGMKITKVEVFERPDGYLVVKMEIELTNENGEKVKLELVFVFKPGEVIESAGGSAGGSAGGS [r10_1183_TrROS_Hall]”, the “folding stability dG unfold” value worked out at 4.96 ± 0.2 kcal/mol in data set [1], 4.72 ± 0.31 kcal/mol in data set [2] and 3 ± 0.15 kcal/mol in data set [3].
For “SAGGSAGGSAGGMKLVTLPDGKTYPFTSLEEFKEALLKETGKPVDLKNPVIYPVPPGLSSAGGSAGGSAGGS [r10_62_JUSTAS]”, in that order: 0.959 ± 0.084 kcal/mol, 0.99 ± 0.22 kcal/mol and 0.401 ± 0.14 kcal/mol.
With “SAGGSAGGSAGGMKTIVFTTLSPEEAQALADELKAKGVDVEVTYEPVPVTPRPLPLNRLSAGGSAGGSAGGS [r10_361_JUSTAS]”, the entries for the “folding stability dG unfold” value in data set [1], in data set [2] and in data set [3] were 3.06 ± 0.063 kcal/mol, 2.57 ± 0.097 kcal/mol and 2.04 ± 0.059 kcal/mol, respectively.
For “SAGGSAGGSAGGMKVIKIEDVEKVKAEAKKNGIKVTYKKENDGEIIAYIEKIPKSIKNKSAGGSAGGSAGGS [r10_218_JUSTAS]”, in that order: 0.449 ± 0.14 kcal/mol, -0.00327 ± 0.23 kcal/mol and -0.832 ± 0.34 kcal/mol.
Take “SAGGSAGGSAGGMKVIPFESLEEAREYIKANPDENVLLEFPDALLELTKPDDIKKIEKKPSAGGSAGGSAGG [r7_532_JUSTAS]”: the “folding stability dG unfold” value in data set [1] was 0.36 ± 0.12 kcal/mol; in data set [2], 0.28 ± 0.084 kcal/mol; in data set [3], -0.0919 ± 0.12 kcal/mol.
For “SAGGSAGGSAGGMKVLVIFEDNKIPRVVSEEELKKIPLPFKIIPLGPDPEEAKKILEKSSAGGSAGGSAGGS [r10_419_TrMRF]”, in that order: 0.34 ± 0.39 kcal/mol, 0.434 ± 0.27 kcal/mol and 0.616 ± 0.13 kcal/mol.

The record behind these values is the supplement of paper PMC12764529.
